The numbers were not newly measured in paper PMC6525395, which cites them from elsewhere.

In the data set the target is IL-6Rα (Homo sapiens) (UniProt P08887).
Sequence of UniProt P08887 (P08887 20-355): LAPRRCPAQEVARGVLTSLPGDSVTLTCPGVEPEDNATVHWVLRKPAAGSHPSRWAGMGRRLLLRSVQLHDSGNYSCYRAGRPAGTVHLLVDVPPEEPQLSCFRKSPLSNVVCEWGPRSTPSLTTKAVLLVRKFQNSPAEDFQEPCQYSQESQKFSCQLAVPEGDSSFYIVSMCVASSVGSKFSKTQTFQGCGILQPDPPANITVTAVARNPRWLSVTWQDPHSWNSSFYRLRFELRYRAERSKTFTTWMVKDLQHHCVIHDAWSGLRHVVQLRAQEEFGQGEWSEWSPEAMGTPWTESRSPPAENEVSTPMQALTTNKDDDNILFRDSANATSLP

As usually defined, the Kd is the free concentration of one partner at which half of the binding sites on the other are occupied at equilibrium, for simple one-to-one binding. Consider IL-6 (from UniProt P05231), for which the Kd is 500 pM.
